Measured values taken from paper PMC8113479, “Following replicative DNA synthesis by time-resolved X-ray crystallography”.

Legend:
[1] = target: T1, Bst DNA polymerase I large fragment (Geobacillus stearothermophilus, UniProt E1C9K5 3-580); assay: X-ray crystallography; 0 min, before dATP soak; Co-crystals; P/T duplex annealed in Bst buffer (50 mM Tris-Cl pH 7.5, 150 mM NaCl, 1 mM EDTA, 10 mM BME) with 20 mM MgCl2; crystallization and soak conditions not in the material; conditions: protein: recombinant; tags: tagless; template 5' overhang 5 nt (GACGT) and 3' overhang 1 nt (A); 10 bp
[2] = target: T1, Bst DNA polymerase I large fragment; assay: X-ray crystallography; dATP soak, 120 min, product complex; Co-crystals; P/T duplex annealed in Bst buffer (50 mM Tris-Cl pH 7.5, 150 mM NaCl, 1 mM EDTA, 10 mM BME) with 20 mM MgCl2; crystallization and soak conditions not in the material; conditions: protein: recombinant; tags: tagless; template 5' overhang 4 nt and 3' overhang 1 nt; 11 bp
[3] = target: T1, Bst DNA polymerase I large fragment; assay: X-ray crystallography; dATP and dCTP soak, 48 h, product binary complex; Co-crystals; P/T duplex annealed in Bst buffer (50 mM Tris-Cl pH 7.5, 150 mM NaCl, 1 mM EDTA, 10 mM BME) with 20 mM MgCl2; crystallization and soak conditions not in the material; conditions: protein: recombinant; tags: tagless; template 5' overhang 3 nt and 3' overhang 1 nt; 12 bp

B1: P/T duplex (starting primer-template) (dsDNA)
DNA 1: GCGATCACGT
DNA 2: GACGTACGTGATCGCA
**Q.** Does B1 bind [1]?
**A.** binds

B2: P+1/T duplex (primer extended by dA in crystallo) (dsDNA)
DNA 1: GCGATCACGTA
DNA 2: GACGTACGTGATCGCA
**Q.** Does B2 bind [2]?
**A.** binds

B3: P+2/T duplex (primer extended by dA and dC in crystallo) (dsDNA)
DNA 1: GCGATCACGTAC
DNA 2: GACGTACGTGATCGCA
**Q.** Does B3 bind [3]?
**A.** binds
